In US12371675B2, “Process and microorganism for synthesis of adipic acid from carboxylic acids” (THE GOVERNING COUNCIL OF THE UNIVERSITY OF TORONTO, priority 2015, dated 2025):

B1: LMO2471: OYE protein from Listeria monocytogenes EGD-e (protein)
chain: MSKLFSEYKLKDVTLKNRIVMSPMCMYSVENKDGIATDFHFAHYVSRAAGGTGLVILEATAVQEVGRISEFDLGLWNDEQVPALKKLVGGLHYHGAKAGIQLAHAGRKAVLPGEIVAPSAIAFDEKSDKPVELTKEAIKEVVADFKRAAYRAKEAGFDVIEIHAAHGYLIHQFLSPITNRREDNYGGPAGNRYKILSDIIKAVKEVWDGPIIVRVSATDYAHGGLQLEDHIPFAKWMKADGVELIDVSTGGLVNVAPPVFPGYQVPFADEIRRGAGIATGALGLITRGEQAEEILCNERADLIIVGRELLRNPYFAKDAAKQLGETIEAPKQYSRAWK
B2: PA2932: OYE protein from Pseudomonas aeruginosa PAO1 (protein)
chain: MSNLLLSPLAVGNLALRNRIVMAPMTRSRAQQPGDVPTALNALYYAQRAGAGLIVSEGTQISHLGQGYAYTPGIYSEAQLAGWRQVTEAVHAAGGLIAAQLWHVGRMSHRSLQAGGEAPIAPSPIQAKAQVFIADGQGGGSMAPADAPREMTLEDIRRVRDEFVRAARNALDAGFDLVELHGANGYLIDQFLASASNRRSDAYGGSLENRARFLLEIVDALVAAVGAERVGLRLSPWGTINDMHDDEPEAMTLYLAEALQRRGIAYLHLAEWEWSGGPAYPQGFRERLRERFRAPLIVCGNYDAERAEAILQAGLADAVAIGRPFIANPDLVERIRLGAPLAEANQARFYGGDAAGYTDYPTLGQSATA
B3: PP1466: OYE protein from Pseudomonas putida KT2440 (protein)
chain: MSLLLEPYTLRQLTLPNRIAVSPMCQYSAIDGLANDWHLVHLGCRAVGGAGLVISEAVAVTADGRITAEDLGLWNDDQIVPLQRITRFITAQGAVPGIQLAHAGRKASTYRPWLGKQGSVKLEDGGWQPVGPSKIAFDPQHTPPRELSKDEIQDVIDAFVASTERALKAGFKVVEIHAAHGYLLHQFLSPLSNQRRDEYGSCFENRIRLTLQVVEAVRKVWPAELPLFVRVSATDWVEDGWNPDETVELARRLRVLGVDLIDVSSGGTSVNAEIPTGPGYQTRFAERVRKEAEIATGTVGMITEPAQAEHILRTGQADVIFLARELLRDPYWPLHADDDLGGNKATWPAQYQRATSRANPIHESDLRD
B4: PS1143: OYE protein from Pseudomonas syringae pv. tomato str. DC3000 (protein)
chain: MSAAALFTPFRLGGLELSSRVVMAPMTRSFSPGHVPNSKVIEYYRRRAAAGVGLIITEGTTVNHPASNGYPNVPQFFGDAPLAGWKKVVDAVHAEGGKIAPQLWHVGAVRRLGTEPDGSIPAYGPMEKVKDGQVLVHGMSKQDIDEVVAAFAQAAADAKAIGMDGVEIHGAHGYLVDQFFWEGSNQRSDEYGGSLANRSRFAIELIKAVRAAVGPDYPIIFRFSQWKQQDYSARLVQTPEALGEFVQPLSDAGVDIFHCSTRRFWEPEFEGSELNLAGWTRKLTGKPTITVGSVGLDGEFLQFMVNTEKVAQPASLENLLERLGKDEFDLVAVGRALLVDPDWAVKVREGREQDILPFSREALTTLV
B5: PS2358: OYE protein from Pseudomonas syringae pv. tomato str. DC3000 (protein)
chain: MSALFEPFKLKDVTLRNRIAIPPMCQYSAIDGVVNDWHHVHLASMARGGAGLLVVEATAVAPEGRITPGCTGIWNDEQAQAFVPIVKAIKDAGCVPGIQIAHAGRKASANRPWEGDDHIVASDSRGWDTIAPSAIAFGANLPKVPRAMTLDDIARVRQNFVDAARRARDAGFEWIELHFAHGYLGQSFFSEHSNQRTDEYGGSFDNRSRFLLETLAAVREVWPENLPLTARFGVLEYDGRDEQTLTESIELARRFKAGGLDLLSVSVGFSTPDANIPWGPAFMGPIAERVRREAAIPVTSAWGFGEPKLAEEAVKSGQLDLVSIGRAHLADPHWAYFAAKELGVEKSAWTLPAPYAHWLERYR
B6: PP1244: OYE protein from Pseudomonas putida KT2440 (protein)
chain: MSALFEPYTLKDVTLRNRIAIPPMCQYMAEDGMINDWHHVHLAGLARGGAGLLVVEATAVAPEGRITPGCAGIWSDAHAQAFVPVVQAIKAAGSVPGIQIAHAGRKASANRPWEGDDHIAADDARGWETIAPSAIAFGAHLPKVPREMTLDDIARVKQDFVDAARRARDAGFEWIELHFAHGYLGQSFFSEHSNKRTDAYGGSFDNRSRFLLETLAAVREVWPENLPLTARFGVLEYDGRDEQTLEESIELARRFKAGGLDLLSVSVGFTIPDTNIPWGPAFMGPIAERVRREAKLPVTSAWGFGTPQLAEAALQANQLDLVSVGRAHLADPHWAYFAAKELGVEKASWTLPAPYAHWLERYR
B7: PP0911: OYE protein from Pseudomonas putida KT2440 (protein)
chain: MTTLFDPIKLGDLQLPNRIIMAPLTRCRADEGRVPNALMAEYYVQRASAGLILSEATSVSPMGVGYPDTPGIWNDEQVRGWNNVTKAVHAAGGRIFLQLWHVGRISHPSYLNGELPVAPSAIQPKGHVSLVRPLSDYPTPRALETEEINDIVEAYRSGAENAKAAGFDGVEIHGANGYLLDQFLQSSTNQRTDRYGGSLENRARLLLEVTDAAIEVWGAQRVGVHLAPRADAHDMGDADRAETFTYVARELGKRGIAFICSREREADDSIGPLIKEAFGGPYIVNERFDKASANAALASGKADAVAFGVPFIANPDLPARLAADAPLNEAHPETFYGKGPVGYIDYPRL
B8: NE2398: OYE protein from Nifrosomonas europaea ATCC 19718 (protein)
chain: MLFNPLQVGSLTLPNRILLAPLTRARADAGHMPNALMAEYYSQRATGGLLISECTMVAPGTSAFVNEPGIYNDAQIAAWRQVTDAVHAKGGRIFMQIWHAGRAAYPGAADGAPIVSSSATAIEGEIHTPQGKVPHAVPRPLTVDEIPGIVAAFAQGARNAIAAGFDGVEVHGANGYLIDQFLRDTPNQRTDAYGGSLENRARLLFEVLTAVTQAIGSERVGLRLSPLNSFNSMKDSDPLALIGFLADRLNAFKLAYLHVMRADFFGVQKADVMPVAREKYKGVLVGNMGYSADEAEAAIAEGRLDAVAFGTAFLANPDLPARIRAKAPLNAPDSNTFYAGGAKGYTDYPTLQLA
B9: PA4356: OYE protein from Pseudomonas aeruginosa PAO1 (protein)
chain: MATLFDPIVLGDLELPNRIVMAPLTRCRADEGRVPNALMAEYYAQRADAGLILSEATAVTPMGVGYPDTPGIWSDDQVRGWSNVTKAVHAAGGRIFLQLWHVGRISDPLYLNGELPVAPSAIAAEGHVSLVRPKRPYVTPRALDTEEIADIVEAYRQGAERAKAAGFDGVEIHGANGYLLDQFLQDSTNKRTDRYGGSIENRARLLLEVTDAAISVWGAQRVGVHLAPRADSHDMGDSNRLETFSHVARELGKRGIAFICAREAQADDSIGVALKKAFGGPYIANEQFTLDSANAILAKGDADAVAFGVPFIANPDLVERLRQGAELNPPRPETFYTGGTEGYLDYPTLA

test: OYE hydrogenation activity screen, NADPH oxidation at 340 nm; assay type: biochemical; conditions: 1 mM substrate, 0.25 mM NADPH, 2.5 μg protein; cut-off 0.05 U/mg protein; ND = not detected
Protocol: 25 putative OYE genes (Table 1) were cloned based on the Pfam domain of the FMN oxidoreductase family PF00724. Purified OYEs were screened for hydrogenation activity against acrolein, 2-cyclohexn-1-one, cis,cis-muconic acid, trans,trans-muconic acid, and 2-hexendioic acid. Substrate specificity was measured spectrophotometrically in 96-well plates by following incubation for 20 min at room temperature in the anaerobic chamber. Buffers and reagents were also degassed and sparged with Ar. Reaction mixtures contained potassium phosphate (50 mM and pH 7.0), NaCl (10 mM), NADPH (0.25 mM), various substrates (1 mM) and protein (2.5 μg) in a final volume of 200 μL. Enzyme reactions were monitored by following the decrease in absorbance at 340 nm (ε340 nm=6,200/M·cm) as a measure of the conversion of the cofactor NADPH to NADP+.

Question: Which “Activity [U/mg protein] 2-cyclohexen-1-one” value does the source give for B1 here?
Answer: 0.08 U/mg protein

Question: Which “Activity [U/mg protein] 2-cyclohexen-1-one” value does the source give for B2 here?
Answer: 13 U/mg protein

Question: With B3 as the molecule, how does the “Activity [U/mg protein] 2-cyclohexen-1-one” value read?
Answer: 0.14 U/mg protein

Question: With B4 as the molecule, how does the “Activity [U/mg protein] 2-cyclohexen-1-one” value read?
Answer: 0.18 U/mg protein

Question: With B5 as the molecule, how does the “Activity [U/mg protein] 2-cyclohexen-1-one” value read?
Answer: 0.13 U/mg protein

Question: Which results are given for B6?
Answer: Activity [U/mg protein] 2-cyclohexen-1-one: 0.25 U/mg protein; Activity [U/mg protein] acrolein: 0.06 U/mg protein

Question: With B7 as the molecule, how does the “Activity [U/mg protein] 2-cyclohexen-1-one” value read?
Answer: 0.15 U/mg protein

Question: Which “Activity [U/mg protein] 2-cyclohexen-1-one” value does the source give for B8 here?
Answer: 0.19 U/mg protein

Question: With B9 as the molecule, how does the “Activity [U/mg protein] 2-cyclohexen-1-one” value read?
Answer: .15 U/mg protein
